This is an account of results in the supplement of paper PMC9112550, “Optimization of the antimicrobial peptide Bac7 by deep mutational scanning” (BMC Biology, 2022).
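Note: peptides expressed intracellularly from a pBAD plasmid library in pooled LB shake-flask culture, induced with 0.3% L-arabinose, DNA abundance read by NGS, three biological replicates, DESeq2 with apeglm shrinkage.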

The subject of this series is Escherichia coli TOP10. Kind of series: shrunken log2 fold change of peptide-encoding DNA abundance (4.5 h post-induction vs induction); higher = less antimicrobial activity (less host growth inhibition). The note with it: time post-induction: 4.5 h; library: site-saturation at positions 5, 18, 19, 20.
On to RRIRFRPPRLPRPRPRPESPPRP, for which the “shrunken log2 fold change” value amounted to 0.00789.
Regarding RRIRPRPPRLPRPRPRPCWVPRP, the “shrunken log2 fold change” value worked out at 0.143.
Take RRIRPRPPRLPRPRPRPCFRPRP: the “shrunken log2 fold change” value is 0.00938.
In the case of RRIRNRPPRLPRPRPRPFDAPRP, the “shrunken log2 fold change” value is -0.106.
To RRIRMRPPRLPRPRPRPHTKPRP belongs 0.137; to RRIRGRPPRLPRPRPRPHHIPRP, -0.525.
Take RRIRVRPPRLPRPRPRPSVAPRP: the “shrunken log2 fold change” value was 0.595.
For the sequence RRIRIRPPRLPRPRPRPYDAPRP, the “shrunken log2 fold change” value was -1.48.
To RRIRLRPPRLPRPRPRPCARPRP belongs 0.0322.
With RRIRRRPPRLPRPRPRPHHNPRP, the “shrunken log2 fold change” value is -0.393.
As to RRIRRRPPRLPRPRPRPSKHPRP, the “shrunken log2 fold change” value was -0.196.
For RRIRRRPPRLPRPRPRPYFDPRP, the “shrunken log2 fold change” value was -0.823.
To RRIRQRPPRLPRPRPRPPTDPRP belongs 0.0902; to RRIRFRPPRLPRPRPRPNNEPRP, -0.265.
Take RRIRKRPPRLPRPRPRPCCEPRP: the “shrunken log2 fold change” value came out at 0.638.
RRIRERPPRLPRPRPRPFTWPRP: the “shrunken log2 fold change” value is -0.737.
To RRIRDRPPRLPRPRPRPKHDPRP belongs -0.16; to RRIRHRPPRLPRPRPRPTNAPRP, -0.463.
To RRIRQRPPRLPRPRPRPIGNPRP belongs 0.0843; to RRIRVRPPRLPRPRPRPQYMPRP, -0.554.
Turning to RRIRYRPPRLPRPRPRPMLNPRP, the “shrunken log2 fold change” value was -0.892.
As for RRIRSRPPRLPRPRPRPMFNPRP, the “shrunken log2 fold change” value is -0.258.
In the case of RRIRYRPPRLPRPRPRPRGNPRP, the “shrunken log2 fold change” value was -0.0138.
Regarding RRIRQRPPRLPRPRPRPTNHPRP, the “shrunken log2 fold change” value is -0.552.
RRIRVRPPRLPRPRPRPLTFPRP: the “shrunken log2 fold change” value is -0.271.
For the sequence RRIRLRPPRLPRPRPRPPWDPRP, the “shrunken log2 fold change” value stood at 0.344.
Take RRIRNRPPRLPRPRPRPGHTPRP: the “shrunken log2 fold change” value is -0.175.
Take RRIRNRPPRLPRPRPRPVNCPRP: the “shrunken log2 fold change” value was -0.147.
Consider RRIRQRPPRLPRPRPRPLCPPRP, for which the “shrunken log2 fold change” value is -0.334.
RRIRIRPPRLPRPRPRPPCDPRP: the “shrunken log2 fold change” value is -0.48.
To RRIRWRPPRLPRPRPRPIVHPRP belongs -0.175; to RRIRQRPPRLPRPRPRPPGNPRP, 0.246.
In the case of RRIRRRPPRLPRPRPRPPYYPRP, the “shrunken log2 fold change” value was 0.108.
On to RRIRLRPPRLPRPRPRPSKWPRP, for which the “shrunken log2 fold change” value is -0.348.
Take RRIRLRPPRLPRPRPRPDPHPRP: the “shrunken log2 fold change” value is -0.171.
With RRIRIRPPRLPRPRPRPMPMPRP, the “shrunken log2 fold change” value was -0.0159.
As for RRIRRRPPRLPRPRPRPHGQPRP, the “shrunken log2 fold change” value amounted to 0.194.
To RRIRNRPPRLPRPRPRPVVSPRP belongs -0.153; to RRIRDRPPRLPRPRPRPQHTPRP, -0.403; to RRIRWRPPRLPRPRPRPNLDPRP, 0.278.
Regarding RRIRFRPPRLPRPRPRPAANPRP, the “shrunken log2 fold change” value amounted to 0.22.
On to RRIRSRPPRLPRPRPRPKWDPRP, for which the “shrunken log2 fold change” value stood at 0.172.
Then RRIRNRPPRLPRPRPRPDIFPRP, with -0.172; and RRIRWRPPRLPRPRPRPGREPRP, with 0.412.
In the case of RRIRVRPPRLPRPRPRPIAWPRP, the “shrunken log2 fold change” value was 0.468.
As to RRIRYRPPRLPRPRPRPFLLPRP, the “shrunken log2 fold change” value is -1.19.
Regarding RRIRPRPPRLPRPRPRPPVVPRP, the “shrunken log2 fold change” value was found to be 0.649.
As for RRIRARPPRLPRPRPRPNETPRP, the “shrunken log2 fold change” value worked out at 0.0696.
With RRIRFRPPRLPRPRPRPERWPRP, the “shrunken log2 fold change” value was found to be 0.462.
On to RRIRERPPRLPRPRPRPMHDPRP, for which the “shrunken log2 fold change” value was -0.286.
RRIRDRPPRLPRPRPRPSRYPRP: the “shrunken log2 fold change” value was -0.219.
To RRIRGRPPRLPRPRPRPPTIPRP belongs 0.459.
Take RRIRIRPPRLPRPRPRPDRRPRP: the “shrunken log2 fold change” value was -0.274.
With RRIRPRPPRLPRPRPRPPVMPRP, the “shrunken log2 fold change” value was 0.303.
As for RRIRCRPPRLPRPRPRPHGQPRP, the “shrunken log2 fold change” value came out at 0.0389.
To RRIRIRPPRLPRPRPRPFCKPRP belongs -0.893.
For the sequence RRIRGRPPRLPRPRPRPPIDPRP, the “shrunken log2 fold change” value turned out to be 0.888.
With RRIRWRPPRLPRPRPRPWYQPRP, the “shrunken log2 fold change” value was -0.179.
With RRIRCRPPRLPRPRPRPTRLPRP, the “shrunken log2 fold change” value is 0.558.
To RRIRKRPPRLPRPRPRPRFFPRP belongs 0.282; to RRIRYRPPRLPRPRPRPNYGPRP, -0.0594; to RRIRHRPPRLPRPRPRPLGNPRP, 0.017.
Take RRIRQRPPRLPRPRPRPIPSPRP: the “shrunken log2 fold change” value is -0.0138.
Consider RRIRDRPPRLPRPRPRPAIKPRP, for which the “shrunken log2 fold change” value was determined as 0.235.
To RRIRNRPPRLPRPRPRPSHGPRP belongs 0.108.
In the case of RRIRWRPPRLPRPRPRPGRTPRP, the “shrunken log2 fold change” value worked out at 0.0519.
Then RRIRWRPPRLPRPRPRPISVPRP, with -0.186; and RRIRVRPPRLPRPRPRPTNQPRP, with 0.0229; and RRIRWRPPRLPRPRPRPQAFPRP, with 0.0509.
For the sequence RRIRKRPPRLPRPRPRPTECPRP, the “shrunken log2 fold change” value was found to be 0.119.
In the case of RRIRMRPPRLPRPRPRPKYVPRP, the “shrunken log2 fold change” value is -0.0144.
Then RRIRWRPPRLPRPRPRPFMDPRP, with -0.41.
For the sequence RRIRTRPPRLPRPRPRPCAKPRP, the “shrunken log2 fold change” value amounted to 0.423.
RRIRPRPPRLPRPRPRPFCGPRP: the “shrunken log2 fold change” value is 0.00967.
For RRIRGRPPRLPRPRPRPEMGPRP, the “shrunken log2 fold change” value came to 1.37.
As for RRIRRRPPRLPRPRPRPKSHPRP, the “shrunken log2 fold change” value is -0.172.
To RRIRFRPPRLPRPRPRPMLAPRP belongs 0.0819; to RRIRSRPPRLPRPRPRPLVCPRP, 0.0734; to RRIRHRPPRLPRPRPRPPHSPRP, 0.0314.
With RRIRGRPPRLPRPRPRPVWLPRP, the “shrunken log2 fold change” value is 0.649.
Regarding RRIRNRPPRLPRPRPRPPPSPRP, the “shrunken log2 fold change” value turned out to be 1.
In the case of RRIRPRPPRLPRPRPRPFPTPRP, the “shrunken log2 fold change” value is -0.189.
As to RRIRVRPPRLPRPRPRPIFTPRP, the “shrunken log2 fold change” value is -0.0783.
Regarding RRIRSRPPRLPRPRPRPSCNPRP, the “shrunken log2 fold change” value was -0.377.
For the sequence RRIRIRPPRLPRPRPRPFLDPRP, the “shrunken log2 fold change” value is -0.888.
As for RRIRIRPPRLPRPRPRPWMMPRP, the “shrunken log2 fold change” value was -0.178.
To RRIRPRPPRLPRPRPRPFLQPRP belongs -0.207; to RRIRWRPPRLPRPRPRPLMYPRP, -0.0465; to RRIRWRPPRLPRPRPRPIFRPRP, 0.0199.
On to RRIRSRPPRLPRPRPRPPADPRP, for which the “shrunken log2 fold change” value amounted to 0.981.
RRIRYRPPRLPRPRPRPSIWPRP: the “shrunken log2 fold change” value is -1.31.
As for RRIRDRPPRLPRPRPRPPEVPRP, the “shrunken log2 fold change” value stood at 0.705.
Turning to RRIRWRPPRLPRPRPRPICVPRP, the “shrunken log2 fold change” value was -0.12.
On to RRIRWRPPRLPRPRPRPAIFPRP, for which the “shrunken log2 fold change” value amounted to 0.327.
Take RRIRPRPPRLPRPRPRPDPNPRP: the “shrunken log2 fold change” value was -0.133.
For RRIRARPPRLPRPRPRPFLIPRP, the “shrunken log2 fold change” value is -0.367.
Consider RRIRKRPPRLPRPRPRPCVVPRP, for which the “shrunken log2 fold change” value was 0.0713.
For the sequence RRIRYRPPRLPRPRPRPIKLPRP, the “shrunken log2 fold change” value is -0.126.
To RRIRNRPPRLPRPRPRPAYRPRP belongs 0.105; to RRIRSRPPRLPRPRPRPMRFPRP, 0.378; to RRIRPRPPRLPRPRPRPWIDPRP, -0.35.
Take RRIRFRPPRLPRPRPRPIEQPRP: the “shrunken log2 fold change” value came to 0.0187.
As to RRIRNRPPRLPRPRPRPKNIPRP, the “shrunken log2 fold change” value was -0.483.
RRIRQRPPRLPRPRPRPLCKPRP: the “shrunken log2 fold change” value was -0.406.
As to RRIRDRPPRLPRPRPRPHYAPRP, the “shrunken log2 fold change” value is -0.00151.
In the case of RRIRVRPPRLPRPRPRPAREPRP, the “shrunken log2 fold change” value was 0.254.
On to RRIRVRPPRLPRPRPRPPKAPRP, for which the “shrunken log2 fold change” value is 0.077.
To RRIRDRPPRLPRPRPRPGDWPRP belongs 0.92; to RRIRNRPPRLPRPRPRPMFRPRP, -0.0515; to RRIRFRPPRLPRPRPRPLHEPRP, 0.0931.
As to RRIRLRPPRLPRPRPRPKYFPRP, the “shrunken log2 fold change” value was -0.269.
Take RRIRERPPRLPRPRPRPSAAPRP: the “shrunken log2 fold change” value turned out to be 0.133.
RRIRNRPPRLPRPRPRPPWWPRP: the “shrunken log2 fold change” value came out at 0.788.
Turning to RRIRYRPPRLPRPRPRPNRKPRP, the “shrunken log2 fold change” value was -0.284.
For the sequence RRIRNRPPRLPRPRPRPMHYPRP, the “shrunken log2 fold change” value is -0.13.
In the case of RRIRNRPPRLPRPRPRPNIDPRP, the “shrunken log2 fold change” value is -0.936.
To RRIRIRPPRLPRPRPRPLRLPRP belongs 0.281; to RRIRARPPRLPRPRPRPTYMPRP, -0.36; to RRIRWRPPRLPRPRPRPTMFPRP, 0.0589.
For the sequence RRIRYRPPRLPRPRPRPGMKPRP, the “shrunken log2 fold change” value is -0.067.
As to RRIRQRPPRLPRPRPRPALEPRP, the “shrunken log2 fold change” value is 0.275.
On to RRIRWRPPRLPRPRPRPNAEPRP, for which the “shrunken log2 fold change” value turned out to be 0.181.
Turning to RRIRSRPPRLPRPRPRPTYCPRP, the “shrunken log2 fold change” value is -0.112.
As for RRIRRRPPRLPRPRPRPQSYPRP, the “shrunken log2 fold change” value was -0.0292.
Turning to RRIRPRPPRLPRPRPRPSVGPRP, the “shrunken log2 fold change” value is -0.295.
